Measurements taken from paper PMC11910330, “Familial Alzheimer’s disease mutations in amyloid precursor protein impair calcineurin signaling to NMDA receptors” (The Journal of Biological Chemistry, 2024).

Experiments:
[1] = molecular target: APLP1 peptide (APLP1 core sequence in the PVIVIT peptide); assay: pull-down; biotinylated peptides (10 ug) precoupled to streptavidin-coated beads, incubated with 200 ng GST-CaN in 200 ul for 30 min at 4 C; PBS with 0.1% Tween-20 and 0.1% BSA, or 150 mM NaCl, 10 mM Hepes, 5 mM EDTA, pH 7.4 with 0.5% CHAPSO and 0.1% BSA; immunoblot with anti-CaN, normalised to a GST-CaN standard
[2] = molecular target: APLP2 peptide (APLP2 core sequence in the PVIVIT peptide); assay: as above

percent lower CaN binding than the PVIVIT peptide [1]: 80% | percent lower CaN binding than the PVIVIT peptide [2]: 30%
Substance: recombinant GST-tagged CaN A subunit (from UniProt Q08209 1-521) (enzyme)
